Drawing on patent US20180066058A1 (published 2018), this text covers IC50 and Kd for 3 molecules.

The target of assay [1] is T1, human ICOS-mFc (Chimerigen) (human, UniProt Q9Y6W8 21-140).
T1 construct: also called human ICOS receptor; human ICOS Receptor; not shown: mouse Fc of the bought construct
T1 sequence: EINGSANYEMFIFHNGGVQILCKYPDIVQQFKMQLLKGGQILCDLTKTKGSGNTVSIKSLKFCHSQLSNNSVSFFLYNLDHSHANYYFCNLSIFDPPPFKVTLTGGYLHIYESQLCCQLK
Description: HTRF neutralisation of Alexa 647 human B7-H2 binding to human ICOS-mFc; human IgG4.PE; mean, n = 3. The protocol:
(§1) 5 μl of ICOS receptor (human ICOS-mFc, 20 nM, 5 nM final or mouse ICOS-mFc 4 nM, 1 nM final (Chimerigen)) was added to required wells. Plate was incubated for 1 hr at room temperature (RT).
(§2) Finally, 5 μl of anti-mouse IgG donor mAb (Southern Biotech) labelled with europium cryptate (Cis Bio), 40 nM, 10 nM final was added to each well and the assay was left in the dark at RT to incubate for a further 2 hours. After incubation, assay was read on Envision plate reader (Perkin Elmer) using a standard HTRF protocol. […] Titration curves and IC50 values [M] were plotted using Graphpad (Prism). IC50 values were calculated by first transforming the data using equation X=Log(X). The transformed data was then fitted using nonlinear regression, using fitting algorithm, log (inhibitor) vs. response—variable slope (four parameters).
In general terms: TR-FRET usually uses a lanthanide donor and a delayed reading to cut background.

The target in assay [2] is T2, mouse ICOS-mFc (Chimerigen) (mouse, UniProt Q9WVS0 21-141, limits assumed).
T2 construct: also called mouse ICOS receptor; mouse ICOS Receptor; not shown: mouse Fc of the bought construct
T2 sequence: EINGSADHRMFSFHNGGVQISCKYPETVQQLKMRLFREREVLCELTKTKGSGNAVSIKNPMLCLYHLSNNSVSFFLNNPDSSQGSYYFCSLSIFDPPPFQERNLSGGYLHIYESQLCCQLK
Description: HTRF neutralisation of Alexa 647 mouse B7-H2 binding to mouse ICOS-mFc; human IgG4.PE; mean, n = 3. As for the experimental part:
as §1, §2

The target of assay [3] is T3, Human ICOS extracellular domain fused to human Fc (human, UniProt Q9Y6W8 21-140).
T3 construct: Dimeric protein made in house from NCBI NP_036224.1; also called hICOS; hICOS Fc; not shown: human Fc region
T3 sequence: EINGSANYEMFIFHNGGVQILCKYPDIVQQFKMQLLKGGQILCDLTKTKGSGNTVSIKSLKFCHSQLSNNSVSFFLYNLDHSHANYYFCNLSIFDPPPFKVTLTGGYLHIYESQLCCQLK
The assay is described as follows: SPR (ProteOn XPR36), Fc-tagged ICOS captured on anti-human IgG, Fab analyte, 25 C. As for the experimental part: Fab affinities of the ICOS leads were generated by SPR using the ProteOn XPR3 6 (BioRad). An anti-human IgG capture surface was created on a GLC biosensor chip by primary amine coupling, immobilising three anti-human IgG antibodies (Jackson Labs 109-005-008, 109-006-008 and 309-006-008). […] Binding sensorgrams were double referenced using a buffer injection (i.e. 0 nM), and the data was fitted to the 1:1 model inherent to the ProteOn XPR36 analysis software. The assay was run at 25° C. and using HBS-EP as running buffer.

Assay [4] deals with T3, Human ICOS extracellular domain fused …. Description: SPR (ProteOn XPR36), human ICOS ECD-Fc captured, Fab analyte, pH 5.5, 37 C; poor fit to 1:1 model. As for the experimental part: (§3) In addition, a comparison was performed of antibody:antigen binding affinity at different pH values. As before, the dimeric human ICOS protein, presented as the extracellular domain of ICOS fused to a human Fc region, was captured on the anti-human Fc capture surface created using the 3 antibody cocktail, immobilised on the GLC biosensor chip by primary amine coupling. SPR analysis of recombinantly expressed anti-ICOS Fabs was carried out on the ProteOn XPR36 Array system (Biorad). The Fab fragments were used as analyte to generate binding sensorgrams, which were double referenced with a buffer injection (i.e., 0 nM). The subsequent referenced sensorgrams were fitted to the 1:1 model inherent to the ProteOn analysis software. […] Data were fitted to the 1:1 model.

Assay [5] shares this target. Description: SPR (ProteOn XPR36), human ICOS ECD-Fc captured, Fab analyte, pH 7.4, 37 C; poor fit to 1:1 model. The protocol: as §3
In assay [6] the target is T1, human ICOS-mFc (Chimerigen). Description: HTRF neutralisation of Alexa 647 human B7-H2 binding to human ICOS-mFc; human IgG4.PE table; n = 1. The protocol: as §1, §2

B1: STIM004 human IgG4.PE (antibody, V domains shown)
VH: EVQLVESGGGVVRPGGSLRLSCAASGLTFDDYGMSWVRQVPGKGLEWVSGINWNGDNTDYADSVKGRFTISRDNAKNSLYLQMNSLRAEDTALYYCARDYYGSGSYYNVPFDYWGQGTLVTVSS
VL: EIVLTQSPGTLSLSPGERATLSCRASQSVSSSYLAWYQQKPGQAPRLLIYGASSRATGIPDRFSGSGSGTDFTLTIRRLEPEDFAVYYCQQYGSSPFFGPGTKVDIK
notes: Human IgG4.PE (null-effector) format
As a reminder, the IC50 is the concentration needed to halve the response being measured. Higher therefore signals weaker potency. On to B1, for which the IC50 turned out to be 0.161 µM in assay [1] and 0.03 µM in assay [2].

B2: STIM002 Fab (Fab, V domains shown)
VH: QVQLVQSGGEVKKPGASVKVSCKASGYTFTSYGFSWVRQAPGQGLEWMGWISAYNGNTNYAQKLQGRVTMTTDTSTSTAYMELRSLRSDDTAVYYCARSTYFYGSGTLYGMDVWGQGTTVTVSS
VL: DIVMTQSPLSLPVTPGEPASISCRSSQSLLHSDGYNYLDWYLQKPGQSPQLLIYLGSTRASGFPDRFSGSGSGTDFTLKISRVEAEDVGVYYCMQALQTPLSFGQGTKLEIK
notes: Recombinantly expressed purified Fab
As a reminder, the Kd is a measure of binding affinity in units of concentration. Higher therefore signals weaker binding. In the case of B2, the Kd in assay [3] came to 1.07 µM; in assay [4], 0.00417 µM; in assay [5], 0.223 µM.

B3: STIM006 human IgG4.PE (antibody, V domains shown)
VH: QVQLVESGGGLVKPGGSLRLSCAASGFTFSDYFMSWIRQAPGKGLEWISYISSSGSTIYYADSVRGRFTISRDNAKYSLYLQMNSLRSEDTAVYYCARDHYDGSGIYPLYYYYGLDVWGQGTTVTVSS
VL: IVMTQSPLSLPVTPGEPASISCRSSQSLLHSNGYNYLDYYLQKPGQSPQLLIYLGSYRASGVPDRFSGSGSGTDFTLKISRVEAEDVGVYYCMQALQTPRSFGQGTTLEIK
In the case of B3, in assay [6], the IC50 was 0.0008 µM. That is a sub-nanomolar value.
